Data as given in the nanobody polyreactivity screen of Harvey et al. (2022).

Test: yeast display, Sf9 membrane polyspecificity reagent, FACS + sequencing; frameworks hold sequencing errors
How it was run: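 Galactose induction of a Saccharomyces cerevisiae BJ5465 synthetic nanobody display library ran 36–48 hours. The cells were then stained for 1 hour at 4 °C with 10% biotinylated, detergent-solubilized Sf9 membrane reagent, pulled down on streptavidin microbeads and FACS-sorted into low and high (top ~1%) gates on expression and reagent-binding fluorescence. Labels for polyreactivity follow the gate of origin.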
For “QVQLVESGGGLVQAGGSLRLSCDSSGSIFYYYAMGWYRQAPGKERELVAAISRRGGSTYYADSVKVRFTISRDNAKNTVYLQMNSLKPVDTAVYYCAADSPRGYDYWGQCTQVTVSS”, the “polyreactivity (PSR sort gate)” value was “high polyreactivity”.
With “QVQLVESGGGLVQAGGSLRLSCEASGRIFGWYAMGWYRQAPGNERELVAALTNSGGSTYYADSVKGRFTISRDYEKNTVYFQMNRLKPEDTGVYFCAAESWIRRWYGGGKKYEYWGQGTQVTVSS” the “polyreactivity (PSR sort gate)” value was “high polyreactivity”.
In the case of “QVQLVESGGGLVQAGGSLRLSCGASGFTFRSYAMGWYRQAPGKEGELVATISSGGTTKYADSVQGRFTISRDNANNTVYLQMNSLKPEDTAVYYCAARTSVLGRNFNYWGQGTQVTVSS”, the “polyreactivity (PSR sort gate)” value is reported as “high polyreactivity”.
With “QVQLVESGGGLVQAGGSLRLSCGASGFTFYGYAMGWYRHGPGKESELVAAITGSGARTNYADSVKGRFTISRDKAKNTVYLQMNSLKPEDTAVYYCNKVGVTRDGSTYRVREDDYWGQGTQVTVSS” the “polyreactivity (PSR sort gate)” value was “high polyreactivity”.
In the case of “QVQLVESGGGLVQAGGSLRLSCGASGFTIQRNAIVWSRQAPGKERELVAAITRGGSTYYADSVKGRFTISRDNAKNTVYLQMNSLKPEDTAVYYCAKRIFSSYIGYGYWGQGTQVTVSS”, the “polyreactivity (PSR sort gate)” value is reported as “high polyreactivity”.
For “QVQLVESGGGLVQAGGSLRLSCGASGLTFVWYGMGWYRQAPGKERELVAAITRGGSTYYADSVKGRFTISRDNAKNTVYLQMNSVKPEDTAVYYCAARYKYTGYDYWGQGTQVTVSS”, the “polyreactivity (PSR sort gate)” value was “high polyreactivity”.
With “QVQLVESGGGLVQAGGSLRLSCGASGRIFRYYAMGWYRQAPGTDREVVAAITQRGGSTYADSVKGRFTISRDNAKKTVYLQMNSLKPEDTADYSCPYRGSFLYDYWGQGTQVTVSS” the “polyreactivity (PSR sort gate)” value was “low polyreactivity”.
For “QVQLVESGGGLVQAGGSLRLSCGASGRIFSYYAMGWYRQAPGKERELVAAINTGGDTYYADSVKGRFTISRDNAKNTVYLQMNSLKPEDTAVYYCAAAYGWGYYYGYGYTPTYDYWGQGTQVTVSS”, the “polyreactivity (PSR sort gate)” value was “low polyreactivity”.
With “QVQLVESGGGLVQAGGSLRLSCGASGRIIGYNAMGWYRQAPGKERELVAVISTSGTITYYADSVKGRFTISRDNAKNTVYLQMNRLKPEDTAVYYCAARYYQRANGFGYCGQGTQVTVSS” the “polyreactivity (PSR sort gate)” value was “low polyreactivity”.
In the case of “QVQLVESGGGLVQAGGSLRLSCGASGRTFRPYAMGWYRQEPGKERELVAAITGGTRTYYADSVKGRFTISRDNAKNTVYLQMNSLKAEDTAVYYCAVGWAGRYDYWGQGTQVTVSS”, the “polyreactivity (PSR sort gate)” value is reported as “low polyreactivity”.
With “QVQLVESGGGLVQAGGSLRLSCGASGSNFWPNTMGWYRPAPGKERELVAGISFGGGSTYFADSVKGRFTISRDNAKNTVYLEMNRQKPEDTAVYYCNADDPGYAGPWYWVKYDYWGKGTQVTVSS” the “polyreactivity (PSR sort gate)” value was “low polyreactivity”.
In the case of “QVQLVESGGGLVQAGGSLRLSCGASGSTFGTYAMGWYRQAPGKERELVAAISWSGGSTYYADSVKGRFTISRDNAKNTVYLQMNSLNPEDTAVYWGQGTQVTVSS”, the “polyreactivity (PSR sort gate)” value is reported as “low polyreactivity”.
With “QVQLVESGGGLVQAGGSLRLSCGASGSTFWWNAMGWYRQAPGKEREFVAAITARGTSTYYADSVKGRFTISRDNAKNTVYLQMNRLKPEDTAVYYCNTRLYGRYYSWYDYWGQGTQVTVSS” the “polyreactivity (PSR sort gate)” value was “high polyreactivity”.
In the case of “QVQLVESGGGLVQAGGSLRLSCGATGSIFKTYAMGWYRQAPGKERELVAAISQRGGSTYYADSVKGRFTISRDNAKNTVYLQMNSLKPEDTAVYYCAARYAYQSYLYRFDYWGQGTQVTVSS”, the “polyreactivity (PSR sort gate)” value is reported as “high polyreactivity”.
For “QVQLVESGGGLVQAGGSLRLSCGAYGRTFRLYAMGWYRQAPAKERELVAAITRGGRTTYADSVKGRFTSSRDNAQNTVYLQMNSLKPEDTAVYYCAARYVERQTDYYYWGQGTQVTVSS”, the “polyreactivity (PSR sort gate)” value was “low polyreactivity”.
With “QVQLVESGGGLVQAGGSLRLSCGGSGNSFNSYALGWYRQAPGKEREFVAAISGSGSSTYYADSVMGRFTISRDNAKNTVYLQINSLKPEDTAVYYCAVPYYKRYIWSNRDYWGQGTQVTVSS” the “polyreactivity (PSR sort gate)” value was “high polyreactivity”.
In the case of “QVQLVESGGGLVQAGGSLRLSCGGSGRIFYSNAMGWYRQAPGKERELFAAIRYSGVRTYYADSLKGRFTISLDNEKNTVYLQMNSLNPEYTEVYYCNVYSRTHYQTYTDDYWGQGTQVNVSS”, the “polyreactivity (PSR sort gate)” value is reported as “high polyreactivity”.
For “QVQLVESGGGLVQAGGSLRLSCGSSGSIFKTNAMGWYRQAPGKERELVAANTWRGGSTYYADSVKGRFTNSRDNAKNTVYLQRNSLKPEDTAVYYCAARQYYGAASYRYYYWGQGTQVTVSS”, the “polyreactivity (PSR sort gate)” value was “high polyreactivity”.
In the case of “QVQLVESGGGLVQAGGSLRLSCHASGRIIVPYVMGWYRQAPGKERELVASISDSDTSTYYADSVKGRFTMSRDNAKNTVYLQMNSLKPEDTAVYYCNVDFWGQGTQVTVSS”, the “polyreactivity (PSR sort gate)” value is reported as “low polyreactivity”.
In the case of “QVQLVESGGGLVQAGGSLRLSCPASGFIFRRYVMGWYRQSPGKERELVAAISKSAVNTYYADSVKGRFTISRDNAKNTVYLQMNSLIPEDTEVYYCNKYGYKGGVGYDYWGQGTQVTVSS”, the “polyreactivity (PSR sort gate)” value is reported as “high polyreactivity”.
With “QVQLVESGGGLVQAGGSLRLSCPASGFILQYNAMGWYRQAPGKERELVAAITRSGVSTHYADSVKGRFTISRDNAKNTVYLQMNSLKPEDTAVYYCARTGHSLYSRYYYWGQGTQVTVSS” the “polyreactivity (PSR sort gate)” value was “low polyreactivity”.
For “QVQLVESGGGLVQAGGSLRLSCPASGFILYPYAMGWYRQAPGKERELVAAITSRGGRTYYADSVKGRFTISRDNAKNTVYLQMNSLKPEDTAVYYCAAKRTSYYAPLKYYSWGQGTQVTVSS”, the “polyreactivity (PSR sort gate)” value was “high polyreactivity”.
In the case of “QVQLVESGGGLVQAGGSLRLSCPASGFTFGRYGMGWYRQAPGKERELVAGITWSGGSTSYADSVKGRFTISRDNAKNTVYLQMYSLIPEDTAVYYCATRARYTRVHGRRYAYDYWGQGTQVTVSS”, the “polyreactivity (PSR sort gate)” value is reported as “high polyreactivity”.
With “QVQLVESGGGLVQAGGSLRLSCPASGFTFYRYAMGWYRQAPGKERELVASISWRGGNTYYADSVKGRFTISRDNEKNTVYLQMNSLKPEDTAVYYCAARGGVLKGYYYWGQGTQVTVSS” the “polyreactivity (PSR sort gate)” value was “high polyreactivity”.
In the case of “QVQLVESGGGLVQAGGSLRLSCPASGIIFYRYSMGWKRQAPGKERQFVAAISRGGGSTYYADSVKGRFTISRDNAKNTFYLQMNSLKPEDTAVYYCNARDTRVTVDQYSIKRMDYWGKGTQVTVSS”, the “polyreactivity (PSR sort gate)” value is reported as “high polyreactivity”.
In the case of “QVQLVESGGGLVQAGGSLRLSCPASGITFIYYAMGWYRQAPGKEREFVAAINYRGTSTYYADSVKGRFTISRDNPKNTVYLQMNSLKPEDTAVYYCAAGPRRTWYRSLGYSFYKYYYWGQGTQVTVSS”, the “polyreactivity (PSR sort gate)” value is reported as “high polyreactivity”.
For “QVQLVESGGGLVQAGGSLRLSCPASGLTFGGNAMGWYRQEPGKERELVAAISWSDDTTDYADSVKGRFTISRDNAKNTVYLQMNSLKPEDTAVYYCAARLPFEHVDYWGQGTQVTVSS”, the “polyreactivity (PSR sort gate)” value was “low polyreactivity”.
In the case of “QVQLVESGGGLVQAGGSLRLSCPASGNIFVYYAMGWSRQAHGKERELVAAITSDVSTYYADSVKGRFTISRDNAKNTVYLQMNSLKPEDTAVYYCATTGYGSYVIYWGQGTQVTVSS”, the “polyreactivity (PSR sort gate)” value is reported as “low polyreactivity”.
With “QVQLVESGGGLVQAGGSLRLSCPASGRILPRNAMGWYRQAPGKERELVAGISSDGSTNYADSVKGRFTISRDNAKNTVYLQMNSLKPEDTAVYYCAADGVYDPNLYGYWGQGTQVTVSS” the “polyreactivity (PSR sort gate)” value was “low polyreactivity”.
For “QVQLVESGGGLVQAGGSLRLSCPASGSIFDLYAMGWYRQAPGKERELVASIRYSGGRTYYADSVKGRFTISRDNAKNTVYLQMNSLKPEDTAVYYCNRDGGYTFIMDYWGQGNQVTVSS”, the “polyreactivity (PSR sort gate)” value was “low polyreactivity”.
With “QVQLVESGGGLVQAGGSLRLSCPASGSIFPYYAMGCYRQAPGKERELVAAISSGDITDYADSVKGRFTISRDNAKNTVYLQMNSLKPEDTAVYYCAAATLSLYWPYLFRGSDYDYWGQGSQVTVSS” the “polyreactivity (PSR sort gate)” value was “low polyreactivity”.
In the case of “QVQLVESGGGLVQAGGSLRLSCPASGSIFYYYAMGWYRQAPGKERELVAAIRGSGSSTYYADSVKGRFTISRDNAKNTVYLQMNSLKPEDTAVYYCAAYDLLVGLQYDYWGQGTQVTVSS”, the “polyreactivity (PSR sort gate)” value is reported as “low polyreactivity”.
With “QVQLVESGGGLVQAGGSLRLSCPASGSNFGVYAMAWYRQAPGKERELVAAITSSGGSTYYADSVKGRFTISRDNAKNTVYFQMNSLKPEDTAVYYCSKDSFSHSHYTRYGYWGQGSQVTVSS” the “polyreactivity (PSR sort gate)” value was “low polyreactivity”.
For “QVQLVESGGGLVQAGGSLRLSCPASGSTFMKYDKGWYRQAPGIVRELVAAISWDGGSTYYADSVKGRFTISRDNAKNTVYLQMNSLKPEDTAVYYCNADYDVYLTIWYYYCEFDYWGQGSQVTVSS”, the “polyreactivity (PSR sort gate)” value was “low polyreactivity”.
For “QVQLVESGGGLVQAGGSLRLSCPASGSTFSPNAIGWSRQAPGKERELLDAINYSSGSTYYADSVKGRFTISRDNAKNSVYLQMNSLKPEDTAVYYCAVRSYWSSLWTLGDYWGQGTQVTVSS”, the “polyreactivity (PSR sort gate)” value was “low polyreactivity”.
With “QVQLVESGGGLVQAGGSLRLSCPASGSTFSWYAMGWSRQEPGKERELVAAISYSGGTYYADSVKGRFTISRDNAKNTVYLQKNSLKPEDTAVYYCAAQRTRYGYDYWGQGTQVTVSS” the “polyreactivity (PSR sort gate)” value was “high polyreactivity”.
For “QVQLVESGGGLVQAGGSLRLSCPASGSTIFGTAMGWYRQAPGKDWELVAASSYSGDSTYYADSVKGRFTISRDNAKHTVYVEMISLKPEDTAVYYCAAGFVIKYDYWGQGTQVTVSS”, the “polyreactivity (PSR sort gate)” value was “low polyreactivity”.
With “QVQLVESGGGLVQAGGSLRLSCPASGSTISGNTMGWYRHDPGKERELVAAISFRSGRTYYADSVKGRFTISRDNAKNTGYLQMNSLIPEDTAVYYCNAEIYTYRTGRGYSRMDYWGQGSQVTVSS” the “polyreactivity (PSR sort gate)” value was “high polyreactivity”.
For “QVQLVESGGGLVQAGGSLRLSCPASGYIFYYNAMGWYRQAPGKERELVAAITSDDSTYYADSVKGRFTISRDNANNTVYLQMNSLKQEDTAVYYCNSVRYGHWYDYWGQGTQVTVSS”, the “polyreactivity (PSR sort gate)” value was “low polyreactivity”.
In the case of “QVQLVESGGGLVQAGGSLRLSCPDSGLIFVANAMGWYIQAPGKERELVAAISRSGGITYYADSVKGRFTISRDNATNTVYLKMNSLKPADTEVYYCAKTLPSNGHYDYWGQGTQVTVSS”, the “polyreactivity (PSR sort gate)” value is reported as “low polyreactivity”.
With “QVQLVESGGGLVQAGGSLRLSCPTSGRNLRWYAMVWYIQAPGKERELVAAIKRSGDTTYYADSVKGRFTISRDNAKNTVYLQMNSLKPEHTAVYYCAARYTRKYDYWGQGTQVTVSS” the “polyreactivity (PSR sort gate)” value was “high polyreactivity”.
With “QVQLVESGGGLVQAGGSLRLSCSASGFIFTLYAMGWYRQAHGKERELVASIRGSGVNTYYADSVKGRFTISRDNAKNTDYLQMNSLKPEDTAVYYCAARTYRRPYYSWGQGTQVTVSS” the “polyreactivity (PSR sort gate)” value was “high polyreactivity”.
For “QVQLVESGGGLVQAGGSLRLSCSASGFIFYGYTMGWYRQAPGKERELVAAITFSGGRTYYADSVKGRFTISRDHAKNTVYLQMNSLKPEDSAVYYCAALHYGRYRMDYWGQGTQVTVSS”, the “polyreactivity (PSR sort gate)” value was “high polyreactivity”.
